The target in experiment [1] is T1, biotinylated human Ang2 protein (human, UniProt O15123 19-496, limits assumed, biotinylated (sites not given)).
T1 construct: also called hAng2
T1 sequence (looked up): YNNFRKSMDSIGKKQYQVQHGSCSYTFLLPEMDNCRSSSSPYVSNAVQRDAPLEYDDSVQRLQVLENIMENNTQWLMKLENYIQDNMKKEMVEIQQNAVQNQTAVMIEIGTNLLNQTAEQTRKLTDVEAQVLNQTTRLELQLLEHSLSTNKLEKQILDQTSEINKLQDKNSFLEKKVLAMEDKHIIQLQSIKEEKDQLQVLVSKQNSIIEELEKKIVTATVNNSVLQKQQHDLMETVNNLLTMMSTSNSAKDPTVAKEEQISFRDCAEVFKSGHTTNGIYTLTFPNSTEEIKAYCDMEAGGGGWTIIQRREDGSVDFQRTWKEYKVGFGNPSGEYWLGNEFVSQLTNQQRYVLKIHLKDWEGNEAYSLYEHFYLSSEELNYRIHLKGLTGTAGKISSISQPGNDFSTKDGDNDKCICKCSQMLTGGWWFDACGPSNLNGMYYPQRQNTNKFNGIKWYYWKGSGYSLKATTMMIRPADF
Put plainly: competition ELISA: antibody preincubated with biotinylated hAng2, binding to coated integrin α3/β1. The protocol:
1 μg/ml (100 μl per well) of a human Ti32-Fc (R&D Systems, 313-TI) or mouse Tie2-Fc (R&D Systems, 762-T2-100) solution, an integrin α3/β1 solution (R&D systems, 2840-A3-050), or an integrin α5/β1 solution (R&D systems, 3230-A5-050) was added to a 96-well immunoplate (Nunc, US) and then allowed to stand overnight at 4° C. for adsorption. The next day, the plate was washed four times with PBS containing 0.05% Tween-20 (hereinafter, referred to as PBST), and 200 μl of a 2% BSA/PBST solution was added to each well and then allowed to stand at room temperature for 1 hour to perform blocking. Anti-Ang2 candidate antibodies were serially diluted 4-fold at a maximum of 1000 nM, and biotinylated human Ang2 protein was made to a final concentration of 100 ng/mL or 625 ng/mL, followed by previous binding at room temperature for 1 hour. […] The plate was washed three times with PBST, 100 μl of HRP-conjugated streptavidin (R&D Systems, DY998) diluted to 1:200 was added to allow a reaction to occur at room temperature for 1 hour, thereby inducing binding, and the plate was washed four times with PBST, followed by color development using 100 μl of a TMB substrate reagent. The color development reaction was stopped by adding 50 μl of 2N H₂SO₄, and a Sunrise microplate reader (TECAN, CH) was used to measure specific absorbance OD₄₅₀ (FIGS. 4 and 5).
Background: In an ELISA, binding on a coated surface is turned into a signal by an enzyme label.

Experiment [2] deals with T2, His-tagged human Ang1 (R&D systems, 923-AN/CF) (human, UniProt Q15389 20-498, limits assumed).
T2 construct: Bought protein; also called hAng1-his; not shown: His tag
T2 sequence (looked up): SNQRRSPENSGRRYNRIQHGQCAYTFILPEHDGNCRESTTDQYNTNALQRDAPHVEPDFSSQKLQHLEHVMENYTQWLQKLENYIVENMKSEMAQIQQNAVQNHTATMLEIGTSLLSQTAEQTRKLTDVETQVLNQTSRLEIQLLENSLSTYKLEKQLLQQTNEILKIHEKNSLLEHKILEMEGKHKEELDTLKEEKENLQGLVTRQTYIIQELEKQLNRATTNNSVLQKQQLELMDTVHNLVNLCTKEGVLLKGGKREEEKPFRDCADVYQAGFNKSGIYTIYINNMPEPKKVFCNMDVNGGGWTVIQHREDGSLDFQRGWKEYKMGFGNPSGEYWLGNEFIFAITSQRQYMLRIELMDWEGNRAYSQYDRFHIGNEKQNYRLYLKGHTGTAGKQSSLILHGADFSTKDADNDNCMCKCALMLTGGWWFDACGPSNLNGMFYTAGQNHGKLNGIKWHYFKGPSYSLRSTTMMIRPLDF
Description: binding ELISA, His-tagged human Ang1 coated at 1 µg/ml, detection with HRP anti-human IgG(kappa) [panel 'human Ang1 binding ELISA']. The protocol: 1 μg/ml (100 μl per well) of a His-tagged human (R&D systems, 623-AN/CF) or mouse (sino, 50298-M07H) Ang2 solution or a His-tagged human (R&D systems, 923-AN/CF) or mouse (sino, 50300-M07H) Ang1 solution was added to a 96-well immunoplate (Nunc, US) and allowed to stand overnight at 4° C. for adsorption. The next day, the solution was washed three times with PBS containing 0.05% Tween-20 (hereinafter, referred to as PBST), and 200 μl of a 2% BSA/PBST solution was added to each well and then allowed to stand at room temperature for 2 hours to perform blocking. After washing three times with PBST, 100 μl of each test antibody solution was added to each well according to concentration to cause binding at room temperature for 1 hour, and then washing was performed three times with PBST, 100 μl of HRP-conjugated goat anti-human IgG(kappa) (bethyl lab #A80-115P) diluted to 1:2000 was added and allowed to react at room temperature for 1 hour, thereby inducing binding, and after washing three times with PBST, color development was performed using 100 μl of a TMB substrate reagent. The color development reaction was stopped by adding 50 μl of 2N H₂SO₄, and a Sunrise microplate reader (TECAN, CH) was used to measure specific absorbance OD₄₅₀₋₆₃₀ (FIG. 3).

B1: No. 8 anti-Ang2 antibody (IgG) (antibody, V domains shown)
VH: QVQLVESGGGLVKPGGSLRLSCAASGFTFSSYSMNWVRQAPGKGLEWVSSISASDGATYYADSVRGRFTISRDNSRSTLYLQMNSLRAEDTAVYYCAKILAGYSGPMGGMDVWGQGTTVTVSS
VL: DIQMTQSPSSLSASVGDRVTITCRASRDISNYLAWYQQKPGKAPKSLIYGASNLQSGVSSQFSGSGSGTDFTLTINSLQPEDSATYYCQQYYSYPLTFGGGTKVDIKR
notes: IgG form: VH cloned into Invivogen pfusess-hchg1, VL into Invivogen pfuse2ss-hclk; also called 3A10
In general, IC50 refers to the point on the concentration scale where inhibition reaches its midpoint. B1 displayed an IC50 in experiment [1] of 4.68 nM. In addition, in experiment [2], the binding result was “no binding (tested: 2 mg/ml (unit as read in the legend))”.

B2: No. 46 anti-Ang2 antibody (IgG) (antibody, V domains shown)
VH: QVQLVESGGGLVQPGRSLRLSCAASGFTFDDCAMHWVRQAPGKGLEWVSGISGNSKNVAYADSVKGRFSISRDDAKNSLYLQMNSLRAEDTAVYYCARDPAYSQFDYWGQGTLITVSS
VL: QSALTQPPSLSATPGQRVTISCSGSSSNVGGYPVNWYQQVPGAAPKLLMYTDYKRPSGVPDRFFGSKSGTSASLAISGLQSEDEADYYCATWDDNLNGYVFGTGTKVTVLG
notes: IgG form: VH cloned into Invivogen pfusess-hchg1, VL into Invivogen pfuse2ss-hclk; also called 3C6
B2: the IC50 in experiment [1] worked out at 4.39 nM. Further, the binding result in experiment [2] was “no binding (tested: 2 mg/ml (unit as read in the legend))”.

B3: No. 4 anti-Ang2 antibody (IgG) (antibody, V domains shown)
VH: QVQLVESGAEVKRPGESLRISCKTSGYSFTSYWIHWVRQMPGKELEWMGSIYPGNSDTRYSPSFQGHVTISADSSSSTAYLQWSSLKASDTAMYYCTTEGLMNGLHFDMWGQGTMVTVSS
VL: DIVMTQTPLSLPVTPGEPASISCRSSQSLLHSLGDNYLDWYLQKPGQSPQLLIYLGSKRAAGVPDRFSGSGSGTDFTLKISRVEAEDVGVYYCMQSLQTPPYTFGQGTKLEIKR
notes: IgG form: VH cloned into Invivogen pfusess-hchg1, VL into Invivogen pfuse2ss-hclk; also called 2D8
The molecule B3 displayed a half-inhibitory concentration (IC50) in experiment [1] of 2.42 nM. Besides, the binding result in experiment [2] is on record as “no binding (tested: 2 mg/ml (unit as read in the legend))”.

B4: No. 41 anti-Ang2 antibody (IgG) (antibody, V domains shown)
VH: QVQLVESGGGLVQPGGSLRLSCEASGFAFGRYEMNWVRQAPGKGLEWIAYIDTGGGAKVYADSVKGRFTISRDDSKNSLYLQMNSLRAEDTAVYYCTTEGLMNGLHFDMWGQGTMITVSS
VL: DIQMTQSPSTLSASVGDRVAITCRASQAISTWLAWYQQKPGKAPKLLIYTASTLESGVPSRFSGSGSGTDFTLTINSLQPDDFATYYCQQLNSYPYTFGGGTKVEIKR
notes: IgG form: VH cloned into Invivogen pfusess-hchg1, VL into Invivogen pfuse2ss-hclk; also called 2B2
In experiment [1], B4 returned a 50% inhibitory concentration (IC50) of 2.43 nM. In addition, the binding result in experiment [2] is reported as “no binding (tested: 2 mg/ml (unit as read in the legend))”.

B5: No. 3 anti-Ang2 antibody (IgG) (antibody, V domains shown)
VH: QMQLVQSGGGLVQPGRSLKLSCAASGFSFDDYAMHWVRQAPGKGLEWVATIKDDGSQTYYVDSVKGRFTISRDNAKSSLFLQMNSLRAEDTAVYYCTTEGLMNGLHFDMWGQGTMVTVSS
VL: LVLTQPPSVSGAPGQGVTISCTGSSSNIGAGYDVHWYQQFPGTAPKLLISGNNNRPSGLPDRFSGSKSGTSASLAITGLQAEDEADYYCQSYDSRLGVVFGGGTKLTVLG
notes: IgG form: VH cloned into Invivogen pfusess-hchg1 (heavy chain constant region), VL into Invivogen pfuse2ss-hclk (light chain constant region); Expressed in Expi293F, purified on Protein A; also called 1D10
B5 registered an IC50 in experiment [1] of 2.5 nM. Moreover, the binding result in experiment [2] is “no binding (tested: 2 mg/ml (unit as read in the legend))”.
